Data published in patent CN117866904A (BEILAI PHARMACEUTICAL CO LTD, dated 2024).

Experiments:
[1] = biological target: T1, IL-17A重组蛋白(抗原), IL-17 antigen with a C-terminal 6×His tag, expressed in E. coli BL21 (human, UniProt Q16552 24-155, limits assumed); test: cell-based or functional assay
T1 sequence: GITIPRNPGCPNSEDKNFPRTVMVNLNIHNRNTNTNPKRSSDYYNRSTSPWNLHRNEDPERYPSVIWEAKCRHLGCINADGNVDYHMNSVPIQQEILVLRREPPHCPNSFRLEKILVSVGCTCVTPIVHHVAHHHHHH

Biotin-IL-17A-His = biological target: T2, Biotin-IL-17A-His (UniProt Q16552 24-155, limits assumed, biotinylated (Biotin-IL-17A-His); site not stated); test: ELISA: antibody coated at 2 ug/mL; Biotin-IL-17A-His titrated from 10 ug/mL, 5-fold, 7 points; HRP-streptavidin; OD450
T2 construct: not shown: His tag
T2 sequence (looked up): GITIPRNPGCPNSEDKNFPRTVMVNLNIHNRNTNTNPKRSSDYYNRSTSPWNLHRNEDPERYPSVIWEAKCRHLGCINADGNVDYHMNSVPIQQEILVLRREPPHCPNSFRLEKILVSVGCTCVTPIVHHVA

[2] = biological target: 生物素化的IL-17A of the ACRO Biosystems IL-17A[Biotinylated]:IL-17RA Inhibitor Screening ELISA Kit (EP-139) (UniProt Q16552); test: blocking ELISA kit: IL-17RA coated, biotinylated IL-17A; G4-H10-MSC supernatant diluted 5-fold; inhibition = [OD450 positive well - OD450 sample well]/OD450 positive well

B1: 阳性对照抗体Ixekizumab (antibody, human IgG4 S228P, kappa, V domains shown)
VH: QVQLVQSGAEVKKPGSSVKVSCKASGYSFTDYHIHWVRQAPGQGLEWMGVINPMYGTTDYNQRFKGRVTITADESTSTAYMELSSLRSEDTAVYYCARYDYFTGTGVYWGQGTLVTVSS
VL: DIVMTQTPLSLSVTPGQPASISCRSSRSLVHSRGNTYLHWYLQKPGQSPQLLIYKVSNRFIGVPDRFSGSGSGTDFTLKISRVEAEDVGVYYCSQSTHLPFTFGQGTKLEIKR
notes: also called 阳性抗体
IC50, 阻断Human IL-17A蛋白激活293F-IL-17RA-IL-17Rc-ACT1-NFκB-Luc报告基因细胞株 [1]: 2.23 nM
EC50 (Biotin-IL-17A-His): 10.1 µg/mL

B2: IL-17Nb secreted by G4-H10-MSC (G4-H10:Fc融合蛋白, VHH-(GGGGS)3-VHH-IgG4 Fc) (Fc fusion)
chain: QVQLVESGGGLVQPGGSLRLSCAASGEKLDYFAIGWFRQAPGKEREVVSCVTSSGSSTNYLSSVKDRFTISIDNAKNTVYLQMNSLKPEDTAIYYCASTILLCSDYISAFGTWGQGTQVTVASGGGGSGGGGSGGGGSEVQLVESGGGLVQPGGSLRLSCAASGFSIHIYAMGWYRQAPGKQRELVATITRGGVTNNADSVKGRFTISRDNAKNTAYLQMNSLKPEDTAVYYCNAGGTNGGYWGQGTQVTVSSAPEFLGGPSVFLFPPKPKDTLMISRTPEVTCVVVDVSQEDPEVQFNWYVDGVEVHNAKTKPREEQFNSTYRVVSVLTVLHQDWLNGKEYKCKVSNKGLPSSIEKTISKAKGQPREPQVYTLPPSQEEMTKNQVSLTCLVKGFYPSDIAVEWESNGQPENNYKTTPPVLDSDGSFFLYSRLTVDKSRWQEGNVFSCSVMHEALHNHYTQKSLSLSLGK
结合抑制率 (IL-17A/IL17RA) [2]: 60%
